Laboratory results published in US20200199241A1 (Chugai, published 2020).

T1: human FcγRIIa(R) (human, UniProt P12318 36-217)
T1 construct: also called FcgRIIaR; hFcgRIIa(R)
T1 chain: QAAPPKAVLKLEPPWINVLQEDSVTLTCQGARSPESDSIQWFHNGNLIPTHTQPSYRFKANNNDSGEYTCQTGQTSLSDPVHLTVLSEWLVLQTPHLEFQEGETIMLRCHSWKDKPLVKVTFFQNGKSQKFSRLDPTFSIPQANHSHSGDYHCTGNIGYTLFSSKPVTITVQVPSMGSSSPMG

T2: human FcγRIIa(H) (human, UniProt P12318 36-217)
T2 construct: also called FcgRIIaH; hFcgRIIa(H)
T2 sequence: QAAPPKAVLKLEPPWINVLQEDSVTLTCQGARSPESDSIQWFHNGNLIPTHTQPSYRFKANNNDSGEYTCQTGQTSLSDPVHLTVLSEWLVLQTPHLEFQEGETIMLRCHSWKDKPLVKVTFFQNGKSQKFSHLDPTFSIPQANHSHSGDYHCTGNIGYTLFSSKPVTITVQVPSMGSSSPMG

T3: human FcγRIIb (human, UniProt P31994 43-217, limits assumed)
T3 construct: also called FcgRIIb; hFcgRIIb
T3 sequence: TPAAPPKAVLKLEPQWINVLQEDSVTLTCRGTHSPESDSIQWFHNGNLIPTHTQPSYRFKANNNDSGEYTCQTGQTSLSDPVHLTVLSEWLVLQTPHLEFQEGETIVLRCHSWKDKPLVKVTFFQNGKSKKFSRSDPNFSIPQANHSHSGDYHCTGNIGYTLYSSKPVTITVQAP


Experiments:
Experiment in all cases: SPR, captured antibody;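 note: antibody captured on a sensor chip, Fcγ receptor flowed over at 25 °C, receptor binding normalized to the captured antibody amount and expressed relative to the reference antibody ×100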
human FcγRIIa(R) = biological target: T1, human FcγRIIa(R)
human FcγRIIa(H) = biological target: T2, human FcγRIIa(H)
human FcγRIa = biological target: T4, human FcγRIa (human, UniProt P12314 16-292, limits assumed)
T4 construct: also called FcgRIa; hFcgRIa
T4 sequence (P12314 16-292 limits assumed): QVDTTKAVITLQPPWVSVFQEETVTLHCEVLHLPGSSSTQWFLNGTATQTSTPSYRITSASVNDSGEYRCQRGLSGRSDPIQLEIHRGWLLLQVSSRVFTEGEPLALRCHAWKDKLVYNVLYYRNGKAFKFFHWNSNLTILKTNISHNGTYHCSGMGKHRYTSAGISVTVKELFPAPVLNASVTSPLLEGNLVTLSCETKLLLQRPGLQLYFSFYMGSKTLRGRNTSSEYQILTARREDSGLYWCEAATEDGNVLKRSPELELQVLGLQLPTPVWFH

human FcγRIIb = biological target: T3, human FcγRIIb

Row | Binder | relative binding activity (human FcγRIIa(R)) | relative binding activity (human FcγRIIa(H)) | relative binding activity (human FcγRIa) | relative binding activity (human FcγRIIb)
1 | GpH7-B3 Q295W/GpL16-k0 (antibody, human IgG1, B3 variant; copies: 2 + 2) heavy: not shown light: DIVMTQSPLSLPVTPGEPASISCQASESLVHSNRNTYLHWYLQKPGQSPQLLIYKVSNRFSGVPDRFSGSGSGTDFTLKISRVEAEDVGVYYCSQNTHVPPTFGQGTKVEIE | 26 % of GpH7-B3/GpL16-k0 | 38 % of GpH7-B3/GpL16-k0 | 81 % of GpH7-B3/GpL16-k0 | 16 % of GpH7-B3/GpL16-k0
2 | GpH7-B3 P331G/GpL16-k0 (antibody, human IgG1, B3 variant; copies: 2 + 2) heavy: not shown light: DIVMTQSPLSLPVTPGEPASISCQASESLVHSNRNTYLHWYLQKPGQSPQLLIYKVSNRFSGVPDRFSGSGSGTDFTLKISRVEAEDVGVYYCSQNTHVPPTFGQGTKVEIE | 13 % of GpH7-B3/GpL16-k0 | 9 % of GpH7-B3/GpL16-k0 | 88 % of GpH7-B3/GpL16-k0 | 8 % of GpH7-B3/GpL16-k0
3 | GpH7-B3 P331R/GpL16-k0 (antibody, human IgG1, B3 variant; copies: 2 + 2) heavy: not shown light: DIVMTQSPLSLPVTPGEPASISCQASESLVHSNRNTYLHWYLQKPGQSPQLLIYKVSNRFSGVPDRFSGSGSGTDFTLKISRVEAEDVGVYYCSQNTHVPPTFGQGTKVEIE | 64 % of GpH7-B3/GpL16-k0 | 59 % of GpH7-B3/GpL16-k0 | 95 % of GpH7-B3/GpL16-k0 | 55 % of GpH7-B3/GpL16-k0
4 | GpH7-B3 Q295S/GpL16-k0 (antibody, human IgG1, B3 variant; copies: 2 + 2) heavy: not shown light: DIVMTQSPLSLPVTPGEPASISCQASESLVHSNRNTYLHWYLQKPGQSPQLLIYKVSNRFSGVPDRFSGSGSGTDFTLKISRVEAEDVGVYYCSQNTHVPPTFGQGTKVEIE | 52 % of GpH7-B3/GpL16-k0 | 67 % of GpH7-B3/GpL16-k0 | 100 % of GpH7-B3/GpL16-k0 | 40 % of GpH7-B3/GpL16-k0
5 | GpH7-B3 P329Y/GpL16-k0 (antibody, human IgG1, B3 variant; copies: 2 + 2) heavy: not shown light: DIVMTQSPLSLPVTPGEPASISCQASESLVHSNRNTYLHWYLQKPGQSPQLLIYKVSNRFSGVPDRFSGSGSGTDFTLKISRVEAEDVGVYYCSQNTHVPPTFGQGTKVEIE | -1 % of GpH7-B3/GpL16-k0 | 0 % of GpH7-B3/GpL16-k0 | 76 % of GpH7-B3/GpL16-k0 | -3 % of GpH7-B3/GpL16-k0
6 | GpH7-B3 P331K/GpL16-k0 (antibody, human IgG1, B3 variant; copies: 2 + 2) heavy: not shown light: DIVMTQSPLSLPVTPGEPASISCQASESLVHSNRNTYLHWYLQKPGQSPQLLIYKVSNRFSGVPDRFSGSGSGTDFTLKISRVEAEDVGVYYCSQNTHVPPTFGQGTKVEIE | 72 % of GpH7-B3/GpL16-k0 | 58 % of GpH7-B3/GpL16-k0 | 98 % of GpH7-B3/GpL16-k0 | 63 % of GpH7-B3/GpL16-k0
7 | GpH7-B3 P329T/GpL16-k0 (antibody, human IgG1, B3 variant; copies: 2 + 2) heavy: not shown light: DIVMTQSPLSLPVTPGEPASISCQASESLVHSNRNTYLHWYLQKPGQSPQLLIYKVSNRFSGVPDRFSGSGSGTDFTLKISRVEAEDVGVYYCSQNTHVPPTFGQGTKVEIE | -2 % of GpH7-B3/GpL16-k0 | 0 % of GpH7-B3/GpL16-k0 | 43 % of GpH7-B3/GpL16-k0 | -4 % of GpH7-B3/GpL16-k0
8 | GpH7-B3 Q295H/GpL16-k0 (antibody, human IgG1, B3 variant; copies: 2 + 2) heavy: not shown light: DIVMTQSPLSLPVTPGEPASISCQASESLVHSNRNTYLHWYLQKPGQSPQLLIYKVSNRFSGVPDRFSGSGSGTDFTLKISRVEAEDVGVYYCSQNTHVPPTFGQGTKVEIE | 45 % of GpH7-B3/GpL16-k0 | 78 % of GpH7-B3/GpL16-k0 | 97 % of GpH7-B3/GpL16-k0 | 29 % of GpH7-B3/GpL16-k0

Further lines, results first:

Row | relative binding activity (human FcγRIIa(R)) | relative binding activity (human FcγRIIa(H)) | relative binding activity (human FcγRIa) | relative binding activity (human FcγRIIb) | Binder
9 | 79 % of GpH7-B3/GpL16-k0 | 38 % of GpH7-B3/GpL16-k0 | 88 % of GpH7-B3/GpL16-k0 | 34 % of GpH7-B3/GpL16-k0 | GpH7-B3 S298K/GpL16-k0 (antibody, human IgG1, B3 variant; copies: 2 + 2) heavy: not shown light: DIVMTQSPLSLPVTPGEPASISCQASESLVHSNRNTYLHWYLQKPGQSPQLLIYKVSNRFSGVPDRFSGSGSGTDFTLKISRVEAEDVGVYYCSQNTHVPPTFGQGTKVEIE
10 | 62 % of GpH7-B3/GpL16-k0 | 36 % of GpH7-B3/GpL16-k0 | 92 % of GpH7-B3/GpL16-k0 | 22 % of GpH7-B3/GpL16-k0 | GpH7-B3 S298R/GpL16-k0 (antibody, human IgG1, B3 variant; copies: 2 + 2) heavy: not shown light: DIVMTQSPLSLPVTPGEPASISCQASESLVHSNRNTYLHWYLQKPGQSPQLLIYKVSNRFSGVPDRFSGSGSGTDFTLKISRVEAEDVGVYYCSQNTHVPPTFGQGTKVEIE
11 | 33 % of GpH7-B3/GpL16-k0 | 35 % of GpH7-B3/GpL16-k0 | 100 % of GpH7-B3/GpL16-k0 | 23 % of GpH7-B3/GpL16-k0 | GpH7-B3 S298Y/GpL16-k0 (antibody, human IgG1, B3 variant; copies: 2 + 2) heavy: not shown light: DIVMTQSPLSLPVTPGEPASISCQASESLVHSNRNTYLHWYLQKPGQSPQLLIYKVSNRFSGVPDRFSGSGSGTDFTLKISRVEAEDVGVYYCSQNTHVPPTFGQGTKVEIE
12 | 0 % of GpH7-B3/GpL16-k0 | 0 % of GpH7-B3/GpL16-k0 | 15 % of GpH7-B3/GpL16-k0 | -1 % of GpH7-B3/GpL16-k0 | GpH7-B3 S298P/GpL16-k0 (antibody, human IgG1, B3 variant; copies: 2 + 2) heavy: not shown light: DIVMTQSPLSLPVTPGEPASISCQASESLVHSNRNTYLHWYLQKPGQSPQLLIYKVSNRFSGVPDRFSGSGSGTDFTLKISRVEAEDVGVYYCSQNTHVPPTFGQGTKVEIE
